Experiment: yeast display, Sf9 membrane polyspecificity reagent, FACS + sequencing; frameworks hold sequencing errors
Procedure, shortened: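 Nanobodies came from a synthetic yeast display library in Saccharomyces cerevisiae BJ5465, induced with galactose for 36–48 hours and stained for 1 hour at 4 °C with 10% biotinylated, detergent-solubilized Sf9 membrane reagent. Cells were enriched on streptavidin microbeads and then FACS-sorted, with low and high (top ~1%) gates set on anti-HA fluorescence for expression and streptavidin fluorescence for reagent binding. Each polyreactivity label reflects the gate a clone came from. Genes were amplified by colony PCR, sequenced by MiSeq 2 × 250 and filtered by CDR length.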

Sequence	polyreactivity (PSR sort gate)
QVQLVESGGGLVQAGGSLRISCAASGFTFYRYAMGWYRPAPGKERELVASIRRSDGSTSYADSVKGRFTISRDNAKNTFYLQMNSLKPEDTAVYYCAARYAGSSRYDYWGQGTQVTVSS	high polyreactivity
QVQLVESWGGVVQAGGSLRLSCAASGRIFQHYAMGWYRQAPGKERELVAAISWRGGSTYYADSVKGRFTISRDNAKNTVFLQMNSLKPEDTAVYYCAAGYRGRIPGFDYWGQGTQVTVSS	high polyreactivity
QVQLVESGGGLVQAGGSLPLSCAASGSIFGINAMGWYRQAPGKERELVAAISSRGASTYYADSVKGRFTISRDNAKNTVYLQMNSLKPEDTAVYYCAADAFYWGQGTQVTVSS	low polyreactivity
QVQLVESGGGLVQAGGSLRLSCAASGRIFPNYVMGWYRQAPGKERELVAAISRRGGRTYYADSVKGRFTISRDNAKNTVYLQMNSLKPEDTAVYYCARVPTRAEDVAGWTGMDYWGQGTQVTVSS	high polyreactivity
QVQHVESVGGLVQAGGSLRLSCAASGSTFGYYAMGWYRQAPGKERELVATISATGGSTYYADSVKGRFTISRDNAKNTVYLQMNSLKPEDTAVYYCNAEYDRGNEYDYWGQGTQVTVSS	low polyreactivity
QVQIVESGGGLVQAGGSLRLSCAASGSIFSVYAMGWYRQAPGKERELVAAIRYGDTSTYYADSVKGRFTISRDNAKNTVYFQMNSLKPEDTAVYYCAADLYAYEREYWGQGTQVTVSS	low polyreactivity
QVQLVESGGGLVQAGGSLRLSCAASGSTFAANAMGWYRQAPGKERELVAVIRRGGSTTYADSVKGRFTISRDNAKNTVYLLMNSLKPEDTAVYYCNARVTLGRPLFTYLVRYEYWGQGTQVTVSS	high polyreactivity
QVQLVESGGGLVQAGGSLRLICAATGSIFPVYAMVWSRQAPGKEREFVARIRFSGGRTYYADSVKGRYTISRDNAMNTVYLQMNSLKPEDTAVYYCAKDFRGYRWSYYWGQGTQVTVSS	high polyreactivity
QVQLVESGGGLVQAGCSLRLSCDASGSIYKYYSMGWYRQAPGKERELVAAISKNGGSTYYADSVKGRFTISRDNAKYTVYLQMNSLKPEDTAVYYCAAEEGYRWVRYNYWGQGTQVTVSS	high polyreactivity
QVQLVESGGGLVQAGGSLRLSCAAYVSIFGDNALGWYRQAPGKEMELVAAISSDGNTNYADSVKGRFTISRDNAKNTVYLQMNSLKPEDTAVYYCAARWGYRRVRANSFYYWGQGTQVTVSS	low polyreactivity
QVQIVESGGLLVQAGGSLRLSCAASGFIFNPNAMGWYRQAPGKERELVAAIRWSGGSTYYADSVQGRFTISRDNEKNTVYLQMNSLKPDDTAVYYCAANPRTTRYGRGYWGQGTQVSVSS	high polyreactivity
QVQLVESGGGLVQAGGSHRLSCAASGSTFDTYPMGWYRQEPGKERELVAAISRSGTSTYYADSVKGRFTISRDNAKNTVYLQMKSLKPEDTAVYYCAAYGPRVNGEIGREYYYWGQGTQVTVSS	low polyreactivity
QVQLVESGGGLVQAGGSLSLSCAASGSIIARYAMGWYRQAPGKERELVAAITWSATSTYYADSVKGRFTISRDNAKNTVYLQMTSLKPEDTAVYYCNAGASYFLVISQSRRDYWGQGTQVTVSS	low polyreactivity
QVQLVESGGGLVQAGGSLRLSCAASGIIFSTYAMGWYRQAPGKERELVAAISDGGASTYYADSVKGRFTISRDNAKNTVYLQMNSLKPEDTAVYFCAAVQTAGQFRYGYWGQGTQVTVSS	high polyreactivity
QVQLVESGGGLVQAGGSLRLSCAASGFTFSRNVMGWYRQAPGKERELVADITLSGASTYYADSVKARFTISRDNAKNTVYLQMNSLKPEDTSVYSCAADPYHWRWGWRHDYWGQGTQVTVSS	low polyreactivity
QVQLVESGGRLVQAGCSLRLSCAASGFIFRLYAKGWYRQAPGKERELVAAISDDASTNYADSVKGRFTISRDNAKNTVYLQMNSLKPEDTAVYYCAAAVKRGYAQSFISDGYGYWGEGTQVTVSS	low polyreactivity
QVQLVESGVGLVQAGGSLRLSCAASGSILFYYAMGWYRQAPGKERELVAAITYSGARSYYADSVKGRFTISRDNAKNTVYLQMNSLKPEDTAVYYWAADQVYGIGYEYWGQGTQVTVSS	low polyreactivity
QVQLVESGGGLVQAGGSLRLRCAASGLTFTGNAMGWYRQAPGKEREFVAAIRWSAGSTYYADSVKARFTISRDNAKNTVYLHMNSLKPEDTAVYYCKAALNVSGHYTNDSWGQGTQVTLSS	low polyreactivity
QVQLVESGGGLVQAGGSLRLSCAASGRIFFTYAMGWYRQAPGKERELVASITGSGGSTYYADSVKGRFTISRDNAKNTVYLQMNSLQPEETAVYYCAAALFPRQLYRKFYYWGQGTQVTVSS	low polyreactivity
QVQLVESGGGLVQAGGSLRLSCAASGFTFQNYAMGWYRQAPGKERELVAAIDSRGGRTYYADSVKGRFTISRDNAKNTVYLQMNSLNPEDTAVYYCAGAENKRFGSVGYYYWGQGTQVTVSS	low polyreactivity
QVQLVESGGGLVQAGGSLRLSCAASGGTFVYYTMGWYRQAPGKERELVAAITQSGSTTYYADSVKGRFTISRDNAKNTVYLQMNSLKPEDTAVYYCARRYGTWNAYDYWGQGTQVTVSS	low polyreactivity
QVQLVESGGGLVQAGGSLRLSCAASGITFERNGKGWYRQAPGKEWELVAAIRSGGSTYYADSVKGRFTISRDNAKNTVYLQMNSLKPEDTAVYYCAAVTQGGYTYLGDYWGQGTQVTVSS	low polyreactivity

Sequence	polyreactivity (PSR sort gate)
QVQLVESGGGLVQAGGSHRLSCAAYGYTIPFYTMGWYRQAPGKERDLVAAINSGGSTYYADSVKGRFTISRDNAKNTVYLQMNTLKPEDTAVYYCAVEGGFRVRYQAQYRYYYWGQGTQVIVSS	high polyreactivity
QVQLVESGGGLVQAGGSLRLSCAASGGIFSENALGWYRQAPGKERELVAVITTSGGSTYYADSVKGRFTISRDNAKNTVYLQMNSLKPEDTAVYYCAADVLSWEYDYWGQGTQVTVSS	low polyreactivity
QVQLVESGGGLVQAGGSLRLSCAASGRIFKKYAMGWYRQAPGKERELVATISSGGSTYYADSVKGRFTISRDNAKNTVYLQMNSLKPEDTAVYYCARREYVRRDYFVTTYDYWGQGTQVTVSS	low polyreactivity
QVQLVESGGGLVQAGGSLRLSCAASGSIYESYAMGWYRQAPGKERELVADITYDGGITYYADSVKGRFTISRDNAKNTVYLQMNSLKPEDTAVYYCATEYRYWLSDYSTYFPYDYWGQGSQVTVSS	low polyreactivity
QVQLVESGGGLVQAGGSLRLSCAASGSIFNYYAMGCYRQAPGKERELVAAIETTGGSTYYADSVKGRFTNSRDNAKNTVYLQMNSLKPEDTAVYYCAATWGKPWYYEYDYWGQGTQVTVSS	low polyreactivity
QVQLVESGGGLVQAGGSLRLSCAASGRIFLKYAMGWYRQAPGKERELVAAISSSGGSTYYADSVKGRFTISRDNAMNTVYLQMNSLKPEDTAVYYCNALYKRGSSYFIGDGYWGQGTQVTVSS	high polyreactivity
QVQLVESGGGLVQAGGSLRLSCAASGGSFYNYPMGWYRQAPGKERELVAAITYSGVRTNYADSVKGRFTISRDNAKNTVYLQMNSLKPEDTAVYYCAADGLSNVRQMDYWGQGTQVTVSS	low polyreactivity
QVQLVESGGGLVQAGGSLRLSCAASGRTFRLYAMGWYRQAPGKERELVAAIDGNGGSTYYADSVKGRFTISRDNAKNTVYLQMNSLKPEDTAVYYCAVSVSVYLDYRRDHQRGYDYWGQGTQVTVSS	low polyreactivity
QVQLVESGGGLVQAGGSLRLSCAASGRIFYYYAMGWYRQAPGKERELVAASSTYYADSVKGRFTISRDNAKNTVYLQMNSQKPEDTAVYYCAAVTFSYDGYDYWGPGTQVTVSS	low polyreactivity
HVQLVESGGGLVQAGASLRLSCAASGSTFSTYGMGCSRQAPGKVRELVADISDSTGSTYYADSVKGRFTISRDNAKYTVYLQMNSLKPEDNAVYYCAADSGEPSWGYDYWGQGTQVTVSS	low polyreactivity
QVQLVESGGGLVQAGGSLRLSCAASGITFTKYVMGWYRQAPGKERELVATIRWGASSTHYADSVKGRFRISRDNAKNTVYFQMNSLKPEDTAVYYCNADCWYGAVYWWFYGFDYWGQGTQVTVSS	low polyreactivity
QVQLVESGGGLVQAGGSLRLSCAASGFIFRDYDMGWYRQAPGKERELVPAISWRGGTYYADSVKGRFTISRDNAKNTVYLQMNSLKPEDTAVYYCNATRYRLRPSGVRYKYNYWGQGTQVTVSS	low polyreactivity
QVQLVESGGGLVQAGGSLRLSCAASGRTYSIYAMGLYRQEPGNEREMVAAISNGGRTKYADSVKGRFTISRDNAKNTVYLQMNSLKPEDTAVYYCAASSYTNKRYPSPYDYWGQGTQVTVSS	high polyreactivity
QVQLVESGGGLVQAGGSLRLSCAASGLTISYYAMGRYRQAPGKERELVAAISTDSSTNYADSVKGRFTISRDNAKNTVYLQMNSLKPEDTAVYYCAAVPRGTQCAMDYWGQGTQVTVSS	low polyreactivity
QVQLVESGAGLVQAGGSLRLSCAPSGRIFDKYAMGWYRQAPGTERELVAAIDWSGGSTYYADSVKGRFTISRDNAKNTVYLQMNCLKPEDTAVYYCAAYWYYEDGQSEARLYGYDYWGQGTQVTVSS	low polyreactivity
QVQLVDSGGGLVQAGGRLRLSCAASGFTFPSNAMGWYRKAPGKERQLVASINQRGGSTYYADSVKGRFTISRDNAKNTVYLQMNSLKPEDTAVYYCAAGPTSRRWYDYWGQGTQVTVSS	high polyreactivity
QVQLVESGGGLVQAGGSLRLSCAASGLTFKKYTIGWYRQAPGKETQLVAVITSGGSTYYADSVKGRFTISRDNAKNTVYLQMNSVKPEDTAVYYGAVKYPELRSWGNYYWGQGTQVTVSS	high polyreactivity
QVQLVESGGGLVQAGGSLRLSCAPSGFIFYANDMGWYRQAPGKERELVARITNSGGSTYYADSVKGRFTISRDNAKNTVYLQMNSLKPEDTAVYYCAAWRRFNYSRRYYYWGQGTQVTLSS	high polyreactivity
QVQLVESGGGLVQAGGSLRLSCAASGSTIRYYAMGWYRQAPGKERQLVAYITTSGGTYYADSVKGRFTISRDNAKNTVYLQMHSLKPEDTAVYYCAARRQDYTYYRIYHFDYWGQGTQVTVSS	high polyreactivity
QDQLVESGGGLVQEGGSLRLSCAASGSIFARNAMGWYRQAPGKERELVAAISRSGGSTYYADSVKGRFTISRDNAKNTVYVQMNSMKPEDTAVYFCNAVQRYSQGDYWGHGTQVTVSS	high polyreactivity
QVQLVESGGGLVQAGGSLRLSCAASGRTFVYNAMGWYRQAPGKEREFVAAISDGGGDTYYADSVKGRFTISRDNAKNTVYLQMNSLKPEDTAVYYCNVEWQQPGYAFDYWGQGTQVTVSS	low polyreactivity

Source: the nanobody polyreactivity screen of Harvey et al. (2022)
